Data reported in patent US20220332804A1 (CSL INNOVATION, published 2022).
Numbering of substitutions follows the chain as printed.

Columns and labels:
Test in all cases: SPR, KD relative to WT C2;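 note: biacore SPR at 37 °C, anti-C2 mAbs captured on anti-human IgG chips with alanine or serine point mutants of C2 as analyte, KD from 1:1 fit compared with wild-type C2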
[1] = biological target: T1, human C2 L271A (human, UniProt P06681 21-752)
T1 sequence: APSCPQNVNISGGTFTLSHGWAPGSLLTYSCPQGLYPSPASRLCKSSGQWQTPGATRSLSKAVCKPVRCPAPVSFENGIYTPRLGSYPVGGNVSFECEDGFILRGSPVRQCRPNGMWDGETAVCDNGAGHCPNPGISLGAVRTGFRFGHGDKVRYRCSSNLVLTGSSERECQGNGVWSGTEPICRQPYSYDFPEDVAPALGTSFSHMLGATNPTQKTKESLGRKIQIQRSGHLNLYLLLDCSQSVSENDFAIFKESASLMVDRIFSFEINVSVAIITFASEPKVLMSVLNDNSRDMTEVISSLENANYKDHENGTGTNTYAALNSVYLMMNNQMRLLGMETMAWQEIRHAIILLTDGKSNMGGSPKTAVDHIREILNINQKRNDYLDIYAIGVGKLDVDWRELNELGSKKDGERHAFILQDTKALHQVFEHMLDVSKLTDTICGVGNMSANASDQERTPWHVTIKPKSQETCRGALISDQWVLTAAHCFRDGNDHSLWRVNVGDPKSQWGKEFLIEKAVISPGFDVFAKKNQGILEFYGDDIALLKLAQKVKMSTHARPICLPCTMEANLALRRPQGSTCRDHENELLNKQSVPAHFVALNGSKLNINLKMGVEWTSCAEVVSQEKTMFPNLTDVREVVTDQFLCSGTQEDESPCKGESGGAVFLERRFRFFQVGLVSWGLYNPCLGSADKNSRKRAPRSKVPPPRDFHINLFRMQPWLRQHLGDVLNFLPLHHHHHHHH

[2] = biological target: T2, human C2 L620A (human, UniProt P06681 21-752)
T2 sequence: T1 sequence with A251L, L600A

[3] = biological target: T3, human C2 V448A (human, UniProt P06681 21-752)
T3 sequence: T1 sequence with A251L, V428A

[4] = biological target: T4, human C2 S469A (human, UniProt P06681 21-752)
T4 sequence: T1 sequence with A251L, S449A

B1: RF16-242 (antibody, human IgG4 S228P, lambda, V domains shown)
VH: EVQLLQSGAEVKKPGESLKISCKGSGYSFTSYWIGWVRQMPGKGLEWMGIIYPGDSDTRYSPSFQGQVTISADKSISTAYLQWSSLKASDTAMYYCARRGHYGDYFDYWGQGTLVTVSS
VL: SYELTQPPSVSVSPGQTARITCSGDALPKKYAYWYHQKSGQAPVLVIYEDRRRPSEIPERFSGSSSGTMATLTITGAQVEDEGVYFCYSRDRAGNQRVFGGGTQLTVLG
notes: pH-dependent anti-C2 antibody from a phage display library
B1 was tested, and the Fold diff [1] was 1 fold, the Fold diff [2] was 1 fold and the Fold diff [3] was 1 fold. It also gave a Fold diff [4] of 3 fold.
